Experimental data taken from PMC2911679.
Where two headings read alike, the source gives them in different places.

Key:
Assay in all cases: AlphaScreen or HTRF
[1] = biological target: His6-tagged GFP–SRY-HMG R76P (SRY residues 55–141) (human) (UniProt Q05066)
[2] = biological target: His6-tagged GFP–SRY-HMG R76P (SRY residues 55–141) (human) (UniProt Q05066); remark: listed apart in the source
[3] = biological target: His6-tagged GFP–SRY-HMG F67V (SRY residues 55–141) (human) (UniProt Q05066)
[4] = biological target: His6-tagged GFP–SRY-HMG M64T (SRY residues 55–141) (human) (UniProt Q05066)

Kd [1]: 2.05 nM | Kd [2]: 1.18 nM | Kd [3]: 1.25 nM | Kd [4]: 2.05 nM
Substance: biotin-labelled calmodulin (CaM) (from UniProt P0DP23 1-149) (natural protein)
